Assay results reported in paper PMC3326531.

Experiments:
SENP1 (415–644) (human) = SENP1 (415–644) (human) (UniProt Q9P0U3)
[1] = target: SENP1 C603A (415–644) (human) (UniProt Q9P0U3); test: ITC
Sequence of SENP1 C603A (415–644) (human) (Q9P0U3 415-644 C603A): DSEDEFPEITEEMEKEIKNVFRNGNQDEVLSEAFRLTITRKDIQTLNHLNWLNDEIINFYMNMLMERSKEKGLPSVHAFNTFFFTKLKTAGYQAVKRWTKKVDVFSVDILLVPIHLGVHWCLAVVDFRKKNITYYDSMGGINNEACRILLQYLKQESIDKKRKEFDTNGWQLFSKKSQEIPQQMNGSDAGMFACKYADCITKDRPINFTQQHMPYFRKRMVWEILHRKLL

Sequence of SENP1 (415–644) (human) (Q9P0U3 415-644): as the sequence (Q9P0U3 415-644 C603A) above, with A189C counted along it

| apparent Km, Km(app), of cleavage by SENP1 (FRET-based protease assay) (SENP1 (415–644) (human)) | IC50 of product inhibition of SENP1 cleavage of YFP–RanGAP1–SUMO-2–ECFP (500 nM) (SENP1 (415–644) (human)) | IC50 of product inhibition of SENP1 cleavage of YFP–SUMO-2-FL–ECFP (500 nM) (SENP1 (415–644) (human)) | Kd [1] | dH [1] | Substance |
| --- | --- | --- | --- | --- | --- |
| 0.242 µM | – | – | – | – | YFP–RanGAP1–SUMO-2–ECFP (from UniProt P46060 418-587; P55854 1-93) (complex) |
| – | 1600 nM | 2230 nM | 8.56 nM | -14.5 kcal/mol | mature SUMO-2 (SUMO-2-GG) (from UniProt P55854 1-93) (natural protein) |
